Reference: patent US5534409, “Cytokine regulated transcription factor” (Ciba-Geigy Corporation)

Target: T1, MGF (mammary gland factor, STAT5), native from lactating mammary gland (Ovis aries, UniProt P42231 SEQ:1-794)
T1 chain: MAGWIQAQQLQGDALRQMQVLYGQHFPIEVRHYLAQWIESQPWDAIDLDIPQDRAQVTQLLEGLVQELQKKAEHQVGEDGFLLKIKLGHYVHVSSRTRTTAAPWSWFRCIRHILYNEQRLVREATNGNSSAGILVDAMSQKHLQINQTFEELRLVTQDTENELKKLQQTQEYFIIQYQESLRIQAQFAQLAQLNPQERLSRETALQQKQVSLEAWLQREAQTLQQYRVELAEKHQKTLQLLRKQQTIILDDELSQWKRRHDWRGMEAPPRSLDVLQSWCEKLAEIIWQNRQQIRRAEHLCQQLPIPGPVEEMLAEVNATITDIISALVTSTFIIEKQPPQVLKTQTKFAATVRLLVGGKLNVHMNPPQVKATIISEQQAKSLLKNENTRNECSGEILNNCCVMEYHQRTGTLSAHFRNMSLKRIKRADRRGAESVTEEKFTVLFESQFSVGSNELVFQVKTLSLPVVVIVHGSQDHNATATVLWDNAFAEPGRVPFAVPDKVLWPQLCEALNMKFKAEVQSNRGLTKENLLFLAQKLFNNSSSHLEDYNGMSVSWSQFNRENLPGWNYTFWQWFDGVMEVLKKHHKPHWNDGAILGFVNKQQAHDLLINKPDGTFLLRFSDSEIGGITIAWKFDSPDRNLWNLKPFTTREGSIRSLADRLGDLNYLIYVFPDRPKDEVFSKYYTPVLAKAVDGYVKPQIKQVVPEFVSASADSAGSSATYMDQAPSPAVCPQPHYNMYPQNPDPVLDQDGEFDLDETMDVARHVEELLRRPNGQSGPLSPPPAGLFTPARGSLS
Assay: EMSA; binds more efficiently than rat site; also used for DNA affinity column, eluted at 600 mM NaCl; binding abolished by tyrosine phosphatase PTP1B, not by PP1C or
Details: tags: none; 84 and 92 kDa bands, tyrosine phosphorylated

B1: bovine beta-casein MGF site (dsDNA)
DNA 1: AGATTTCTAGGAATTCAATCC
DNA 2: GGATTGAATTCCTAGAAATCT
  binding result: binds
